Measurements from the supplement of paper PMC9170038.

What was measured:
MS2 coat protein [1] = assay: apparent KD of MS2 coat protein, switch OFF state (with FMN for OFF switches, without FMN for ON switches); designed switch direction (-1 OFF switch, 1 ON switch): -1; higher = weaker reporter binding; conditions: FMN input: 0 or 200 uM; Eterna round: R93 (includes R88 designs)
Outline: (§1)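 Designed RNA switches were transcribed on-chip from Illumina sequencing clusters and titrated with SNAP-549-labelled MS2 coat protein in twofold steps from 0.7 or 1.5 nM up to 3 µM. Each step lasted 0.8–1.5 h at first and 10–20 min by the end, in 100 mM Tris-HCl pH 7.5, 80 mM KCl and 4 mM MgCl2, without or with constant ligand. Apparent KD is the median, for each design, of fits to normalised cluster binding curves.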

MS2 coat protein [2] = assay: apparent KD of MS2 coat protein, switch ON state; designed switch direction (-1 OFF switch, 1 ON switch): -1; higher = weaker reporter binding; conditions: FMN input: 0 or 200 uM; Eterna round: R93 (includes R88 designs)
Outline: as §1

| Sequence | apparent KD of MS2 coat protein (MS2 coat protein [1]) [nM] | apparent KD of MS2 coat protein (MS2 coat protein [2]) [nM] |
| --- | --- | --- |
| AAGAAUGCAGGAUAUACAUGAAAGAAAGAAAAGAAAAGAAAACAUGAGGAUCACCCAUGUAGAAGGGCAUAGAA [EteRNA is fun!] | 44.1 | 26.8 |
| AAGAAAGCAGGAUAUACAUGAGGAUCACCCAUGUAAAAGAAAGAAAGGGAAAAGAAAAGUAGAAGGGCUAAGAA [Usermaatre-setepenre Pami] | 26.1 | 23.6 |
| AAAAAGGGAGGAUAUACAUGAGGAUCACCCAUGUGAAGGACGAAAAAGAGUCUAAAGGGUAGAAGGCCCAAAAA [65%, Moding Exclusion3-cac2, 11] | 43.4 | 52.5 |
| AACCAACAUGAGGAUCACCCAUGUCAGGAUAUGCAAAUAACAAACAACAAACAACAAAGCAGAAGGGACAACAA [Mat - Exclusion 1 - Eli mod - D50] | 20.5 | 15.4 |
| AAACCACAUGAGGAUCACCCAUGUCAGGAUAUGCUAUGGAAAAAUAAAAUAAAACAUAGCAGAAGGGACAAAAA [Mat - Exclusion 1 - Eli mod - D34] | 52 | 31.1 |
| AAAAAGGUAGGAUAUACAUGAGGAUCACCCAUGUAAAUAAAUGGAGAAAAAAACAAUUGUAGAAGGGCCAAAAA [Ex3 Malc#8] | 43.1 | 39.9 |
| CUCUUGUAAGGAUAUAAAUGAAAAGAAGUGAAAGAAAAGAAUUAGAAGGUACAUGAGGAUCACCCAUGUUAGAA [EteRNA is fun!] | 18.5 | 22.1 |
| AGUUGGCGAGGAUAUACAUGAGGAUCACCCAUGUAAAAUAAAUAAAAAAUAAAGGGAAGUAGAAGGCGCUGACA [73%, Moding Norbert Elias, 15] | 77 | 41.8 |
| AACAUGUAAGGAUAUAGAAGAAAAGAAAAGAAAGAAAAGAACUAGAAGGUACAUGAGGAUCACCCAUGUAAGAA [EteRNA is fun!] | 16.2 | 33.1 |
| AAAAAUGGAGGAUAUACAUGAGGAUCACCCAUGUGUGACUAUACUAUGUGCUCUUCAGGUAGAAGGCCAAAAAA [Gilly Gone Silly 19 - Jieux - Exclusion 3] | 249 | 44.3 |
| AGUAUGCGAGGAUAUACAUGAGGAUCACCCAUGUGAGAGAUAAAAGUGAGAAAGAAAUGUAGAAGGCGCGUACA [JL Lego Mod 22] | 43 | 98.8 |
| AAAAGGGCAGGAUAUGCGUACUCACGGAAAAACUGGAUGGUACAUGAGGAUCACCCAUGUAGAAGGGCUAAAAA [Dora Explored 17 - Jieux - Exclusion 2] | 40.9 | 57.5 |
| AAAAAAGGAGGAUAUACGUACAUGUCGAAAGACGUGAAGGGACAUGAGGAUCACCCAUGUAGAAGGCCUAAAAA [Mat - Exclusion 2 - JL mod - D86] | 107 | 34.8 |
| AGAAAGUCAGGAUAUACGAACAAGAAAAAAGACGAGAACGGACAUGAGGAUCACCCAUGUAGAAGGGACAAGAA [Diamond 13] | 36.3 | 73.5 |
| AUAGGUCGAGGAUAUACAUGAGGAUCACCCAUGUAAAUAAAUAAAUAAAACUCCACAAGUAGAAGGCGAAAUAA [JR_Exc003_Sub201] | 22.6 | 28.1 |
| AAAAAACAUGAGGAUCACCCAUGUGAGGAUAUCGCUAGUCAGUCCCUAGAGUGAGUGAUGAGAAGGCACAUAAA [Brourd 613 Mod 7 - Jieux - Exclusion 1] | 49.6 | 40.9 |
| AGCUAGCAAGGAUAUACGAACAUGUCAAAAGACGUGAAGGGACAUGAGGAUCACCCAUGUAGAAGGUGCUAGCA [JL 74% mod 8] | 127 | 36.6 |
| AGGAAACAUGAGGAUCACCCAUGUCAGGAUAUAGAAAAGAAAAGAAAAGAAAGAAGAACUAGAAGGGACAAGAA [Scorpion I] | 26.3 | 27.7 |
| AUAGUAGGAGGAUAUACAUAGAUACAGAUACAUGUAGACGUACAUGAGGAUCACCCAUGUAGAAGGCCUAUGAA [Mat - Same state - Mayanna Mod - D149] | 116 | 126 |
| UCCUCACAUGAGGAUCACCCAUGUGAGGAUAUGUACAUCAGGAAAAAAAAACUGAUGUACAGAAGGCACAUGAA [Design 10: Super Stable G-C 3] | 16.5 | 13.3 |

| Sequence | apparent KD of MS2 coat protein (MS2 coat protein [1]) [nM] | apparent KD of MS2 coat protein (MS2 coat protein [2]) [nM] |
| --- | --- | --- |
| AGGGAGUAAGGAUAUGAGAAAUAAAAAGAAGGAAAAAAAGAUCAGAAGGUACAUGAGGAUCACCCAUGUGGGAA [milkweed 10] | 39.9 | 43.1 |
| AAAAAAAGAGGAUAUACGAACAUGUCAAAAGACGUGAAGGGACAUGAGGAUCACCCAUGUAGAAGGCUUAAAAA [JL Part Open 28] | 26.3 | 38.7 |
| CCACAGGUAGGAUAUGCUGGGUGGGAUAAAUAAUUCCUGUGACAUGAGGAUCACCCAUGUAGAAGGACCAAAAG [Rixela] | 40.1 | 22.9 |
| AAUUAGUGAGGAUAUACAUGAGGAUCACCCAUGUGUAAAAAAAAACGCAAAAAAGAAUGUAGAAGGCACUAAAA [Ex 3 Cold] | 37.9 | 20.3 |
| AGUUGGCGAGGAUAUACAUGAGGAUCACCCAUGUAAAAUAAAUAAAAAGGGAAAGAAAGUAGAAGGCGCUGACA [73%, Moding Norbert Elias, 10] | 83.3 | 42.4 |
| AAGAGUACAGGAUAUACAUGAAAAGAGUCGAAAGACUCAAAACAUGAGGAUCACCCAUGUAGAAGGGUACUCAA [Hyphema Seclusion Mod 62% 2] | 98.9 | 137 |
| GGGUAGUCAGGAUAUACAAACAUGUCAAAAGACGUGAAAAAACAUGAGGAUCACCCAUGUAGAAGGGACUACCC [Mat - Exclusion 2 - JL mod - D20] | 15 | 17.8 |
| AUAAUGAGAGGAUAUACAUGAGGAUCACCCAUGUAAUUAACACGGCGAGCACCAAUACGUAGAAGGCUCAUUUA [JR_Exc003+Sub602] | 49.9 | 22.4 |
| UAUGAGCGAGGAUAUGCUUGGGACGUCGUUCUUGCGGCGAGACAUGAGGAUCACCCAUGUAGAAGGCGCGAGCG [Harteesian Twist] | 16.7 | 17.4 |
| AGCUAGUCAGGAUAUACGAGAAUGUCAAAAGACGUGAAGGGACAUGAGGAUCACCCAUGUAGAAGGGACUAGCA [Diamond 23] | 208 | 39.3 |
| AAGUUACAUGAGGAUCACCCAUGUGAGGAUAUGUGUAUCCCUAAAAAAGUGUGGGACCACAGAAGGUACUUGGA [Mod 2 of Atanri by ViennaUCT, Round 1] | 44.5 | 42.9 |
| AUUAUGUAAGGAUAUGAGUGAACAACAAAACAAAUAACGACUCAGAAGGUACAUGAGGAUCACCCAUGUAUAAA [May 70] | 21 | 28.9 |
| AAUUAGGUAGGAUAUACAUGAGGAUCACCCAUGUGGAAAAAAAACUACGAAAAAGAAUGUAGAAGGACCUAAAA [Ex 3 Frozen] | 21.9 | 18.8 |
| AAAAAACAUGAGGAUCACCCAUGUGAGGAUAUGCAAAAGAAAAGAAAAGAAAGAAGAAGCAGAAGGCACAAGAA [Djedefra] | 36.8 | 29.4 |
| AGCUAGUGAGGAUAUACGAACAUGUCAAAAGACGUGAAAAAACAUGAGGAUCACCCAUGUAGAAGGCACUAGCA [Mat - Exclusion 2 - JL-Eli mod - D56] | 16.9 | 19.2 |
| AAUAAUGCAGGAUAUACUAAAGAAAUGAAAAGAAAUAAAGAACAUGAGGAUCACCCAUGUAGAAGGGCAAAUAA [Yakareb] | 29.3 | 52 |
| AAAAAGUGAGGAUAUGGUAAAAAAAAAAAAAAAAAAAAAAUCCAGAAGGCACAUGAGGAUCACCCAUGUAAAAA [Jolly Cotton - Jieux - Exclusion 4] | 29.7 | 46.2 |
| AAAAAUGGAGGAUAUACAUGAGGAUCACCCAUGUUAGAACAAAAAAAAGGGAAAGAAAGUAGAAGGCCAUAAAA [Ex 3 May 25] | 49.1 | 34.7 |
| AAAAAACAUGAGGAUCACCCAUGUGAGGAUAUCUGAAAAAAAAAAAAAAAAAAGAAAAAGAGAAGGCGCAAAGA [Ex 1 #2] | 35.1 | 38 |
